B1: Steroid hormone receptor ERR2, residues 100 to 176; numbered along this chain, O95718 (parent)
chain: KRLCLVCGDIASGYHYGVASCEACKAFFKRTIQGNIEYSCPATNECEITKRRRKSCQACRFMKCLKVGMLKEGVRLD

Variants of: B1
Experiment: abundance fitness (aPCA) (normalised: wild type 0, dead -1); higher = more abundant; growth selection in yeast, the domain comes from the species named
Conditions: Homo sapiens

Abundance fitness, by site and new letter:
G73: M 0.007, F -0.369, W -0.031, R -0.056, E 0.118, L -0.016, A 0.08, D 0.133, N -0.107, C -0.126, S -0.031, I -0.441, Q 0.046, T 0.002, V -0.132, P 0.019, K 0.017, H -0.104
R75: K 0.075, E 0.076, P 0.031, N -0.074, V 0.002, I -0.051, H -0.165, W -0.1, A 0.035, Q 0.153, D 0.04, Y -0.102, T 0.062, C 0.117, F -0.014
L70: G -0.084, E 0.101, A -0.004, M -0.03, W -0.032, Y -0.646, Q -0.035, I 0.034, V 0.107, P -0.044, H -0.158, R 0.014, K 0.13, D 0.069, F -0.066, T 0.011, C -0.098, N 0.032, S 0.083
V74: G -0.089, K -0.124, R -0.191, L -0.004, F -0.171, Y -0.319, E 0.08, S -0.017, D 0.03, C -0.501, P -0.025, T -0.129, I -0.026, M -0.13, A 0.126, N -0.036
G68: D -0.267, P -0.894, H -0.657, Q -0.944, T -0.849, W -0.806, C -0.808, S -0.954, L -0.749, A -0.777, N -0.753, M -0.851, R -0.903, K -0.454
C64: E -0.561, G -0.582, Y -0.95, M -0.273, S -0.396, V -0.836, H -1.04, K -0.767, L -0.826, N -0.483, F -0.686, I -0.478, R -0.751, P -0.747, T -0.658, W -0.531
K71: N -0.147, C -0.006, D -0.102, I -0.047, Y -0.222, F -0.305, L -0.148, E -0.07, A -0.109, T -0.106, M -0.063, P -0.19, S -0.025, V -0.02, Q -0.153, W -0.242, G -0.166
D77: T -0.04, Q 0.26, E -0.096, V -0.111, H 0.082, P 0.171, F -0.363, N -0.166, R -0.11, L -0.168, A -0.131, G -0.194, W -0.287, C -0.348, M -0.35, Y -0.29, S -0.059, I -0.572
M69: F 0.058, R -0.729, H -1.06, P -0.782, Y -0.259, Q -0.752, G -0.703, W -0.231, D -0.694, A -0.639, I -0.581, T -0.54, C -0.937, L -0.431, V -0.749, K -0.931, E -0.57, N -0.642
K66: H -0.168, P -1.27, F -0.585, L -0.436, C -0.354, R -0.019, W -0.559, S -0.011, Y -0.508, V -0.241, T 0.162, G -0.256, D -0.103, M 0.074, Q -0.03, E -0.073

— the Human Domainome abundance scans (Beltran et al. 2025)
